Laboratory results taken from PMC10009750, “Development of Selective ADAMTS-5 Peptide Substrates to Monitor Proteinase Activity” (Journal of Medicinal Chemistry, 2023).
Non-standard residues stand in square brackets, D forms with d. No end group written: not given here. Tyr(3-NO2) = N[C@@H](Cc1ccc(O)c([N+](=O)[O-])c1)C(=O)O; 2Abz = Nc1ccccc1C(=O)O

What was measured:
[1] = molecular target: T1, TS5-5 (combined catalytic and disintegrin domain of ADAMTS-5) (Homo sapiens, UniProt Q9UNA0); assay: Cleavage of FRET peptide substrates by TS5-5 in solution (activity/selectivity studies); type: biochemical; conditions: substrate 20 μM, TNC buffer with 0.005% (v/v) Brij-35, 37 °C; mean of 3–4 independent experiments in triplicate
T1 construct: ADAMTS-5 (i.e. TS5-5, residues 264–555); FLAG; made in house; host or cells: HEK293 cells (previously transfected stocks)
T1 sequence (Q9UNA0 264-555): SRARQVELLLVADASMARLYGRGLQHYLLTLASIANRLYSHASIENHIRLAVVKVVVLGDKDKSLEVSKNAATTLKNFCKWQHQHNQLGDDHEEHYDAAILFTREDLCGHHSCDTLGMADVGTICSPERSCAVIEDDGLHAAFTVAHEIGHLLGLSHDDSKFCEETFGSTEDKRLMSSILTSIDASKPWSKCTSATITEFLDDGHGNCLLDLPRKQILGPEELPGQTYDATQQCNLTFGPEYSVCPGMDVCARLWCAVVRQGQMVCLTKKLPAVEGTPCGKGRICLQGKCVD
Procedure: (§1) All proteinase assays were performed at 37 °C in a SpectraMax M5 spectrophotometer (Molecular Devices, San Jose, USA) using a 96-well black microplate (Greiner bio-one, Stonehouse, UK) unless otherwise stated. […] N-TIMP-3 was purified as described previously[30] and CT-1746 was a gift from Dr. Yoshifumi Itoh (Kennedy Institute of Rheumatology, University of Oxford). All analyses were carried out using Prism 9 software (GraphPad, La Jolla, CA, USA).
To test whether active TS5-5 had been purified, three concentrations of proteinase were assayed. A solution of Abz-TESE↓SRGAIY-Dpa-KK-NH2 (22.22 μM) in freshly prepared TNC buffer with 0.02% (v/v) Brij-35 (180 μL) was added to a 96-well black microplate in triplicate for each proteinase concentration. A substrate-only background control was also added in triplicate (180 μL). The resultant solutions were incubated at 37 °C (30 min). TS5-5 proteinase in TNC buffer with 0.02% (v/v) Brij-35 (20 μL) was added to wells to give final proteinase concentrations of 80 nM, 40 nM and 20 nM. TNC buffer with 0.02% (v/v) Brij-35 (20 μL) was also added to background control wells. The change in RFU was measured at 37 °C for 1 h, with readings every 20 s. Following subtraction of background fluorescence intensity, linear regression analysis of the linear part of each curve was used to determine the cleavage rate, which was expressed as the mean ± SEM in RFU s^–1. For cases where a single concentration of TS5-5 or TS4-4 was assayed, the same procedure was used but with 0.005% (v/v) Brij-35 and using the 5-FAM-AE↓LQGRPISIAK-TAMRA substrate for TS4-4 (0.56 μM). To convert cleavage rates to nM s^–1 nM^–1, the rate in RFU s^–1 was divided by the final concentration of proteinase (nM), then divided by the gradient of the calibration curve for Abz or 5-FAM (expressed in RFU nM^–1).
(§2) Selectivity studies are described for Abz-TESE↓SRGAIY-Dpa-KK-NH2, the library parent peptide 3, and hit peptides 18–26. A solution of Abz-TESE↓SRGAIY-Dpa-KK-NH2 (22.22 μM) in freshly prepared TNC buffer with 0.005% (v/v) Brij-35 (90 μL) was added to a 96-well clear bottom microplate (Greiner bio-one, Stonehouse, UK) in triplicate. A substrate-only background control was also added in triplicate (90 μL). The resultant solutions were incubated at 37 °C (30 min). An ADAMTS or MMP proteinase was added to substrate wells (10 μL) to give a final proteinase concentration of either 50–90 nM (TS4-4), 25–200 nM (TS5-5), 5–10 nM (MMP-2ΔC), 30 nM (MMP-9ΔC), 92 nM (MMP-1), or 3 μM (MMP-3). TNC buffer with 0.005% (v/v) Brij-35 was added to substrate-only control wells (10 μL). The relative fluorescence intensity was measured at 37 °C for 1 h with readings every 20 s. Activity was read from underneath the microplate, which was covered with a low evaporation lid. […] For each ADAMTS and MMP proteinase, the assay was performed 2–4 times. […] Final rates were expressed as a percentage of substrate cleavage by TS5-5 (mean ± SEM) or in μM s^–1 μM^–1 of proteinase.

[2] = tested on: MMP-9ΔC (catalytic domain of MMP-9); assay: Selectivity studies: cleavage of FRET peptide substrates by MMP-9ΔC; type: biochemical; conditions: substrate 20 μM, after 48 h at an MMP-9 concentration of 30 nM, 37 °C
Procedure: as §1, §2

TS5-5 (ADAMTS-5) = molecular target: T2, TS5-5 (ADAMTS-5) (Homo sapiens, UniProt Q9UNA0); assay: Determination of kinetic parameters (kcat and Km) for substrate cleavage by TS5-5, inner-filter corrected; type: biochemical; conditions: for decrease in Km compared to the current substrate / lower catalytic rate constant (kcat) compared to the current substrate: TS5-5
T2 construct: ADAMTS-5 (i.e. TS5-5, residues 264–555); FLAG; made in house; host or cells: HEK293 cells (previously transfected stocks)
T2 sequence (Q9UNA0 264-555): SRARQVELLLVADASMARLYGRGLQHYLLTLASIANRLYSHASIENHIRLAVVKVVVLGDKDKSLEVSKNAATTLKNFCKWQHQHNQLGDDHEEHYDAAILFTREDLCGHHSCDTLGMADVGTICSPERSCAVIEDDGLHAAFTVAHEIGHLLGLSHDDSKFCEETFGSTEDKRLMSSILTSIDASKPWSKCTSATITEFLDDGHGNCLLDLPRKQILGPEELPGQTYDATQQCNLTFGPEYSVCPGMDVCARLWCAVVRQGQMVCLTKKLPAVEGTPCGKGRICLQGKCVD
Procedure: A solution of Abz-TESE↓SRGAIY-Dpa-KK-NH2/3/26 (5 mM) or 19/23 (1 mM) in DMSO underwent a 2-fold serial dilution with freshly prepared TNC buffer containing 0.005% (v/v) Brij-35. This gave initial concentrations in the following range: 222.22 to 0.87 μM (Abz-TESE↓SRGAIY-Dpa-KK-NH2/3/23/26) and 177.78 to 1.39 μM (19). Eight substrate concentrations (180 μL) within these ranges (including outer numbers) were added to a 96-well black microplate in triplicate and incubated at 37 °C (20 min). TNC buffer with 0.005% (v/v) Brij-35 was added to substrate-only control wells in a single replicate (180 μL). TS5-5 proteinase was thawed from −80 or −20 °C, made up in TNC buffer with 0.005% (v/v) Brij-35 (300 nM) and added to substrate wells (20 μL). TNC buffer was added to substrate-only control wells (20 μL). Fluorescence intensity was measured at 37 °C for 1 h with readings every 20 s. The rate of substrate cleavage was determined at each substrate concentration and expressed as the mean ± SEM in μM s^–1. The subsequent data was fitted to the Michaelis–Menten eq 2: [drawing 2] 2 where v is the rate of the reaction, Vmax is the maximal rate of the reaction, Km is the Michaelis constant, and [S] is the substrate concentration. This equation enabled the Km value to be determined. The catalytic rate constant kcat was determined from eq 3: [drawing 3] 3 where [E] is the concentration of proteinase, and kcat and Vmax are as defined previously. These initial Km and kcat parameters were determined from n = 3–4 independent experiments with final values for these parameters reported after a correction for the inner-filter effect.
This was performed based on the protocol described in Liu et al.([40]) to correct for quenching of the released Abz fluorophore by uncleaved substrate. Two sets of initial substrate concentrations were prepared as described in the previous section. Both sets of substrate concentrations (180 μL) were added to a 96-well black microplate in triplicate. Two buffer-alone controls with TNC buffer containing 0.005% (v/v) Brij-35 (180 μL) were also added in triplicate. All solutions were incubated at 37 °C (20 min). Abz fluorophore (1 M) in DMSO was serially diluted to 1 mM in DMSO, before further dilution to 100 μM using TNC buffer containing 0.005% (v/v) Brij-35. TNC buffer containing 0.005% (v/v) Brij-35 (20 μL) was added to the first set of substrate concentrations as well as to the first buffer-alone control. Abz fluorophore (20 μL, 100 μM) was added to the second set of substrate concentrations as well as the second buffer-alone control. The end-point fluorescence intensity was measured at 37 °C using λex = 300 nm and λem = 430 nm. At each substrate concentration, […] to give the actual fluorescence of the Abz fluorophore (RFUAbz). These values were divided by RFUAbz at a substrate concentration of 0 μM to give the correction factor for each concentration. The rates for each substrate concentration described in the previous section were divided by their respective correction factors (Tables S6–S10) to deliver the inner-filter corrected kcat and Km values.

TS4-4 (ADAMTS-4) = molecular target: T3, TS4-4 (ADAMTS-4) (Homo sapiens, UniProt O75173); assay: Selectivity studies: cleavage of FRET peptide substrates by TS4-4; type: biochemical; conditions: substrate 20 μM, TS4-4 50–90 nM, TNC buffer with 0.005% (v/v) Brij-35, 37 °C; mean of 3–4 independent experiments in triplicate
T3 construct: TS4-4, TS5-5 = catalytic and disintegrin domains; made in house; host or cells: HEK293 cells (previously transfected stocks)
T3 sequence (O75173 213-519 limits assumed): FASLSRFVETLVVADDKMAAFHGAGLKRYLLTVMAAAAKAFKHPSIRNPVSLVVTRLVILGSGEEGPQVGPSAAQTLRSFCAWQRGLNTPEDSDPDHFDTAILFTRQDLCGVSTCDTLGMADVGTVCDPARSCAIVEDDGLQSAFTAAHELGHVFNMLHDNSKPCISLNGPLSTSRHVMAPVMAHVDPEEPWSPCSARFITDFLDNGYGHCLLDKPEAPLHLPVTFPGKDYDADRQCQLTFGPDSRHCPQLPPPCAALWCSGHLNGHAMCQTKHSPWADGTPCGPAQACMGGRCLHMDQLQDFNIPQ
Procedure: as §1, §2

[3] = molecular target: combined catalytic and disintegrin domain of ADAMTS-5 (TS5-5) (UniProt Q9UNA0)
[4] = TS5-5, TNC buffer with 0.005% (v/v) Brij-35, 37 °C, corrected for inner filter effect, mean ± SEM from 3–4 independent experiments in triplicate
[5] = supplementary CSV copy of Table 3, TS5-5, 37 °C

Molecule: KY(NO2)NDTESOAK(Abz)AHFUKG [Compound 24]
- rate of cleavage by TS5-5 [1]: 1.41 × 10^–4 μM s^–1 μM^–1
- cleavage by MMP-9ΔC [2]: no signs of cleavage

Molecule: KY(NO2)NESESKAK(Abz)VHYKKG (K[Tyr(3-NO2)]NESESKAK(2Abz)V-{H2N-Tyr-Lys-Lys-Gly}) [Compound 25]
- rate of cleavage by TS5-5 [1]: 1.78 × 10^–2 μM s^–1 μM^–1
- cleavage by MMP-9ΔC [2]: no signs of cleavage

Molecule: KY(NO2)QDSESBAK(Abz)JHYUKG [Compound 20]
- rate of cleavage by TS5-5 [1]: 1.22 × 10^–3 μM s^–1 μM^–1
- cleavage by MMP-9ΔC [2]: no signs of cleavage

Molecule: KY(NO2)SESESRGK(Abz)IYYKKG (K[Tyr(3-NO2)]SESESRGK(Abz)IYYKKG) [Compound 23]
- decrease in Km compared to the current substrate (TS5-5 (ADAMTS-5)): ~2 fold
- lower catalytic rate constant (kcat) compared to the current substrate (TS5-5 (ADAMTS-5)): ~3 fold
- Km (TS5-5 (ADAMTS-5); [4]): 64.6 ± 4.6 µM
- kcat (TS5-5 (ADAMTS-5); [4]): 1.14 ± 0.11 s⁻¹
- kcat/Km (TS5-5 (ADAMTS-5); [4]): 18200 ± 2940 M⁻¹ s⁻¹
- kcat (TS5-5 (ADAMTS-5); [5]): 1.14 ± 0.11 s⁻¹

Molecule: KY(NO2)TENESRGK(Abz)IYYKKG (K[Tyr(3-NO2)]TENESRGK(Abz)IYYKKG) [Compound 19]
- decrease in Km compared to the current substrate (TS5-5 (ADAMTS-5)): ~4 fold
- lower catalytic rate constant (kcat) compared to the current substrate (TS5-5 (ADAMTS-5)): ~7 fold
- Km (TS5-5 (ADAMTS-5); [4]): 30.5 ± 2 µM
- kcat (TS5-5 (ADAMTS-5); [4]): 0.53 ± 0.014 s⁻¹
- kcat/Km (TS5-5 (ADAMTS-5); [4]): 17500 ± 1080 M⁻¹ s⁻¹
- kcat (TS5-5 (ADAMTS-5); [5]): 0.53 ± 0.014 s⁻¹
- rate of cleavage by TS4-4 (TS4-4 (ADAMTS-4)): 0.08–0.10 μM s^–1 μM^–1

Molecule: KY(NO2)TETESOAK(Abz)IYFKKG [Compound 22]
- rate of cleavage by TS5-5 [1]: 7.38 × 10^–2 μM s^–1 μM^–1

Molecule: ortho-aminobenzoyl(Abz)-TESE↓SRGAIY-N-3-[2,4-dinitrophenyl]-L-2,3-diaminopropionyl(Dpa)-KK-NH2 (peptide)
- Km of cleavage of the FRET peptide by TS5-5 (Michaelis-Menten fit, corrected for the inner-filter effect, 37 °C, TNC buffer with 0.005% Brij-35) [3]: 125 µM

Molecule: K[Tyr(3-NO2)]SENESRGK(2Abz)IYYKKG [KY(NO2)SENESRGK(Abz)IYYKKG (26)]
- Km of cleavage of the FRET peptide by TS5-5 (Michaelis-Menten fit, corrected for the inner-filter effect, 37 °C, TNC buffer with 0.005% Brij-35) [3]: 76.9 µM

Molecule: K[Tyr(3-NO2)]TENESRGK(2Abz)IYYKKG [KY(NO2)TENESRGK(Abz)IYYKKG (19)]
- Km of cleavage of the FRET peptide by TS5-5 (Michaelis-Menten fit, corrected for the inner-filter effect, 37 °C, TNC buffer with 0.005% Brij-35) [3]: 30.5 µM

Molecule: K[Tyr(3-NO2)]TESESRGK(2Abz)IYYKKG [KY(NO2)TESESRGK(Abz)IYYKKG (3)]
- Km of cleavage of the FRET peptide by TS5-5 (Michaelis-Menten fit, corrected for the inner-filter effect, 37 °C, TNC buffer with 0.005% Brij-35) [3]: 29.5 µM
